Patent US20250101100A1 (Bristol-Myers Squibb, published 2025)
Substitutions are numbered along the chain they refer to. In names and notes the source's numbering stands. Each block holds one binder with its values, some of them ahead of it.

How the values were obtained:
[1] = target: T1, human NKG2A-CD94 heterodimer (extracellular domains) (human, UniProt Q13241 32-179); assay: SPR Biacore T200, 37 °C, antibody captured by anti-human Fc on C1 chip, hNKG2A-hCD94 as analyte
T1 construct: extracellular domain; also called hNKG2A-heterodimer; hNKG2A-hCD94

human NKG2C on CHO cells [2] = target: T2, human NKG2C on CHO cells (human, UniProt P26717 1-231); assay: FACS on CHO cells engineered to express human NKG2C-CD94
T2 construct: also called CHO-human NKG2C; hNKG2C

human NKG2A on cells [3] = target: T3, human NKG2A on cells (human, UniProt P26715 1-233); assay: flow cytometry, blocking of labelled HLA-E pentamer on NKL cells
T3 construct: also called hNKG2A; CHO-hNKG2A

human NKG2A on cells [4] = target: T3, human NKG2A on cells; assay: flow cytometry on NKL cells (endogenous human NKG2A), anti-human IgG-PE
Description: Cells were washed and stained with fluorescently labeled goat anti-human IgG-PE secondary antibody for 30 minutes at 4° C. to detect the bound antibody on the cell surface. Cells were read fresh on the BD LSRFortessa.

human NKG2A on cells [5] = target: T3, human NKG2A on cells; assay: flow cytometry, blocking of labelled HLA-E pentamer on CHO cells expressing human NKG2A
Description: As depicted in FIG. 20A, 1×10⁶ human NKG2A-expressing CHO cells were incubated with titrating amounts of anti-NKG2A antibody (10 ug/ml) for 30 minutes at 4° C. […] Cells were read fresh on the BD LSRFortessa.

human NKG2A on cells [6] = target: T3, human NKG2A on cells; assay: flow cytometry on CHO cells expressing human NKG2A, anti-human IgG-PE
[7] = target: T4, cynomolgus monkey NKG2A on cells (cynomolgus monkey, UniProt Q68VD2 1-233); assay: flow cytometry on CHO cells expressing cynomolgus NKG2A
T4 construct: whole, on cells; On transfected CHO cells or on NK cells of cynomolgus PBMC / blood; also called CHO-cyno NKG2A; CHO-cynomolgus NKG2A
Description: The ability of anti-NKG2A antibodies that bound to cynomolgus NKG2A-expressing CHO cells was assessed. As depicted in FIG. 22A, 1×10⁶ cynomolgus NKG2A-expressing CHO cells were incubated with titrating amounts of anti-NKG2A antibody (10 ug/ml) 10 for 30 minutes at 4° C. […] Cells were read fresh on the BD LSRFortessa.

[8] = target: T5, cynomolgus NKG2A-CD94-mFc (cynomolgus monkey, UniProt Q68VD2 94-233); assay: SPR Biacore T200, 37 °C, Fab as analyte over NKG2A-CD94-mFc immobilized on CM4 chip
T5 construct: also called monkey NKG2A-CD94-mFc (truncated construct); cyNKG2A-CD94; not shown: mouse Fc

human NKG2A on cells [9] = target: T3, human NKG2A on cells; assay: flow cytometry, blocking of HLA-E pentamer binding to CHO cells expressing human NKG2A
human NKG2C on CHO cells [10] = target: T2, human NKG2C on CHO cells; assay: flow cytometry, binding to CHO cells expressing human NKG2C, anti-human IgG-PE
Description: As depicted in FIG. 18A, 1×10⁶ human NKG2A-expressing or human NKG2C-expressing CHO cells were incubated with titrating amounts of anti-NKG2A antibody for 30 minutes at 4° C. Cells were washed and stained with fluorescently labeled goat anti-human IgG-PE secondary antibody for 30 minutes at 4° C. to detect the bound antibody on the cell surface. Cells were read fresh on the BD LSRFortessa.

human NKG2C on CHO cells [11] = target: T2, human NKG2C on CHO cells; assay: flow cytometry, blocking of HLA-E pentamer binding to CHO cells expressing human NKG2C
[12] = target: T1, human NKG2A-CD94 heterodimer …; assay: SPR Biacore T200, 37 °C, antibody captured by anti-hFc on CM4 chip, heterodimer as analyte
Excerpt: (§1) All data were double-referenced and fitted to a 1:1 binding model using the Biacore T200 Evaluation Software version 3.1.

[13] = target: T6, human NKG2C-CD94 heterodimer (extracellular domains) (human, UniProt Q13241 32-179); assay: as above
T6 construct: extracellular domain; also called hNKG2C-heterodimer; hNKG2C-CD94
Excerpt: as §1

human NKG2A on cells [14] = target: T3, human NKG2A on cells; assay: flow cytometry on CHO cells expressing human NKG2A

T6 sequence (chain, as listed by the source, chain 1 of 2): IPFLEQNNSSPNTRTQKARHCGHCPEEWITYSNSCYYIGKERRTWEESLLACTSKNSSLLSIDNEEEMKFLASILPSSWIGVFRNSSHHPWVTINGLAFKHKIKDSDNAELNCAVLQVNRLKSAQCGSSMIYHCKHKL
T6 sequence (Q13241 32-179, chain 2 of 2): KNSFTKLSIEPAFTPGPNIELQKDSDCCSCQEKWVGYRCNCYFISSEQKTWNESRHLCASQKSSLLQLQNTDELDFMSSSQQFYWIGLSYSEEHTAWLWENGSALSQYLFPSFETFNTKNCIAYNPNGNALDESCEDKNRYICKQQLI
T3 sequence (P26715 whole entry): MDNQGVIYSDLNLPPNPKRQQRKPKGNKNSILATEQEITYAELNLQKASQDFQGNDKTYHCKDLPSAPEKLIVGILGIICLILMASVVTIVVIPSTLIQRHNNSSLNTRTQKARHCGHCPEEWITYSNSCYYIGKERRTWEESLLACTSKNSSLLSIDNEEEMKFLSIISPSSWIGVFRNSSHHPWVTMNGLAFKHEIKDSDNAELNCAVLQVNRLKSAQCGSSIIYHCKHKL
T1 sequence (chain, as listed by the source, chain 1 of 2): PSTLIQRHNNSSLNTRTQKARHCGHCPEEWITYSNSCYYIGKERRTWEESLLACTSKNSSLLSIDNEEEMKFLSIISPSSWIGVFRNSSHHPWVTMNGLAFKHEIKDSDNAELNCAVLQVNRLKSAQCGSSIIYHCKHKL
T1 sequence (Q13241 32-179, chain 2 of 2): as the sequence (Q13241 32-179, chain 2 of 2) above
T4 sequence (Q68VD2 entry or part of it): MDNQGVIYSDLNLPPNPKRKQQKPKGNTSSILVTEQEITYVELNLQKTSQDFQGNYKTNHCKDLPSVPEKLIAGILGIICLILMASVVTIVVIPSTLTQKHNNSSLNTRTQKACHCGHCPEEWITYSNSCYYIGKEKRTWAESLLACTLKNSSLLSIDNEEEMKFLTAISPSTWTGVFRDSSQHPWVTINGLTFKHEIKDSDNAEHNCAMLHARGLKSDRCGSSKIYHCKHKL
T2 sequence (P26717 other isoform, or with tags, fused parts or gaps): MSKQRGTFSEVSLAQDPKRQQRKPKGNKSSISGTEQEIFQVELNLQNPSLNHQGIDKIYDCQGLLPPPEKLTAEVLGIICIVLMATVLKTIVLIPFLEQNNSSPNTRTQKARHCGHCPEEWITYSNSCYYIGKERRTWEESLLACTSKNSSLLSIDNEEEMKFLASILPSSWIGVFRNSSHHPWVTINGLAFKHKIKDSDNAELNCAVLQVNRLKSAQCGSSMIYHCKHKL
T5 sequence (Q68VD2 entry or part of it): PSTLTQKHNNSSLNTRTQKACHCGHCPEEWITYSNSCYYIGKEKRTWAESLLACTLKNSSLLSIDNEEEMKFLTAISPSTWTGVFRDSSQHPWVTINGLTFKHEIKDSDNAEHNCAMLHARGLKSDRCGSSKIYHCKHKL

B1: monalizumab (antibody, V domains shown)
VH: QVQLVQSGAEVKKPGASVKVSCKASGYTFTSYWMNWVRQAPGQGLEWMGRIDPYDSETHYAQKLQGRVTMTTDTSTSTAYMELRSLRSDDTAVYYCARGGYDFDVGTLYWFFDVWGQGTTVTVSS
VL: DIQMTQSPSSLSASVGDRVTITCRASENIYSYLAWYQQKPGKAPKLLIYNAKTLAEGVPSRFSGSGSGTDFTLTISSLQPEDFATYYCQHHYGTPRTFGGGTKVEIKR
Half-life of Antibody/Analyte Complex [1]: 3 to 4 s
Kd [1]: 26 nM
koff [1]: 0.2 s⁻¹
kon [1]: 7e+06 M⁻¹ s⁻¹

B3: 1G5.B2 antibody (antibody, human IgG1, kappa, V domains shown)
VH: QVQLVESGGGVVQPGRSLRLSCAASGFTFSDYAMHWVRQTPGRGLEWLTFISYDGSNKYHADSVKGRFTISRDNSKNTLFLQMNSLRAEDTAVYYCARDSWDRGYFDLWGRGTLVTVSS
VL: EIVLTQSPATLSLSPGERATLSCRASQSVSSYLAWYQQKPGQAPRLLIYDASNRATGIPARFSGSGSGTDFTLTISSLEPEDFAVYYCQQRSNWWTFGQGTKVEIKR
notes: Hybridoma antibody; printed as IG5.B2 in two paragraphs; also called IG5.B2
IC50 (human NKG2A on cells [3]): 0.4 nM
EC50 (human NKG2A on cells [4]): 0.3 nM
IC50 (human NKG2A on cells [5]): 0.7 nM
EC50 (human NKG2A on cells [6]): 0.6 nM

B5: NKG2A.9 Fab (Fab, V domains shown)
VH: EVQLVESGGGLVKPGGSLRLSCAASGFTFSSHSMNWVRQAPGKGLEWVSAISSSSSYIYYADSVKGRFTISRDNAKNSLYLQMNSLRAEDTAVYYCAREEWGLPFDYWGQGTLVTVSS
VL: AIQLTQSPSSLSASVGDRVTITCRASQGISSALAWYQQKPGKAPKLLIYDASSLKSGVPSRFSGSGSGTDFTLTISSLQPEDFATYYCQQFNSYPLTFGQGTRLEIK
notes: Fab of NKG2A.9
KD ratio (cy/h) [8]: ~26
Kd [8]: 1600 nM

B7: NKG2A.10 antibody (antibody, IgG1, V domains shown)
VH: B5 VH
VL: AIQLTQSPSSLSASVGDRVTITCRASQGIQSALAWYQQKPGKAPKLLIYDASSLKSGVPSRFSGSGSGTDFTLTISSLQPEDFATYYCQQFNSYPLTFGQGTRLEIKR
notes: IgG1.3f; also called 13F3.A4 VH-I107T, VK-N30Q
EC50 [7]: 1.3 nM
IC50 (human NKG2A on cells [5]): 0.05 nM
EC50 (human NKG2A on cells [6]): 0.1 nM

B8: NKG2A.5 antibody (antibody, V domains shown)
VH: EVQLVESGGGLVKPGGSLRLSCAASGFTFSSYSMNWVRQAPGKGLEWVSSISSSSSYIYYADSVKGRFTISRDNAKNSLYLQMNSLRAEDTAVYYCARLLWFGEIFDYWGQGTLVTVSS
VL: B5 VL with L96I
notes: also called recombinant 11H9.A4
IC50 (human NKG2A on cells [5]): 0.3 nM
EC50 (human NKG2A on cells [6]): 0.3 nM

B9: NKG2A.14 antibody (antibody, human IgG1, kappa, V domains shown)
VH: B5 VH with T112I
VL: B7 VL
notes: IgG1.3f; also called 13F3.A4 VK-N30Q
IC50 (human NKG2A on cells [5]): 0.2 nM
EC50 (human NKG2A on cells [6]): 0.1 nM

Now from value to binder:

binding result (human NKG2C on CHO cells [2]): no binding
B2: P1-069366 antibody (antibody, V domains shown)
VH: QVQLVESGGGVVQPGRSLRLSCAASGFTFSSYAMHWVRQAPGKGLEWVAVISYDGSYKEYADSVKGRFTISRDSSKNTLYLQMNSLRAEDTAVYYCARAQISEYFDYWGQGTLVTVSS
VL: DIQMTQSPSSLSASVGDRVTITCRASQGISSWLAWYQQKPEKAPKSLIYAASSLQSGVPSRFSGSGSGTDFTLTISSLQPEDFATYYCQQYNSYPLTFGQGTKVEIKR
notes: From the immune antibody library (yeast display); also called P10069366

EC50 [7]: 1.4 nM
B4: NKG2A.11 antibody (antibody, human IgG1, kappa)
heavy: EVQLVESGGGLVKPGGSLRLSCAASGFTFSSHSMNWVRQAPGKGLEWVSAISSSSSYIYYADSVKGRFTISRDNAKNSLYLQMNSLRAEDTAVYYCAREEWGLPFDYWGQGTLVTVSSASTKGPSVFPLAPSSKSTSGGTAALGCLVKDYFPEPVTVSWNSGALTSGVHTFPAVLQSSGLYSLSSVVTVPSSSLGTQTYICNVNHKPSNTKVDKRVEPKSCDKTHTCPPCPAPEAEGAPSVFLFPPKPKDTLMISRTPEVTCVVVDVSHEDPEVKFNWYVDGVEVHNAKTKPREEQYNSTYRVVSVLTVLHQDWLNGKEYKCKVSNKALPAPIEKTISKAKGQPREPQVYTLPPSREEMTKNQVSLTCLVKGFYPSDIAVEWESNGQPENNYKTTPPVLDSDGSFFLYSKLTVDKSRWQQGNVFSCSVMHEALHNHYTQKSLSLSPG
light: AIQLTQSPSSLSASVGDRVTITCRASQGIPSALAWYQQKPGKAPKLLIYDASSLKSGVPSRFSGSGSGTDFTLTISSLQPEDFATYYCQQFNSYPLTFGQGTRLEIKRTVAAPSVFIFPPSDEQLKSGTASVVCLLNNFYPREAKVQWKVDNALQSGNSQESVTEQDSKDSTYSLSSTLTLSKADYEKHKVYACEVTHQGLSSPVTKSFNRGEC
notes: Human IgG1.3f, kappa; also called 13F3.A4 VH I107T, VK N30P; 13F3 VH I107T VK N30P

IC50 (human NKG2A on cells [9]): 1 nM
IC50 (human NKG2A on cells [3]): 0.1 nM
EC50 (human NKG2A on cells [4]): 0.1 nM
EC50 (human NKG2C on CHO cells [10]): 9 nM
EC50 (human NKG2A on cells [6]): 0.7 nM
IC50 (human NKG2C on CHO cells [11]): 54 nM
B6: 11H9.A1 antibody (antibody, human IgG1, kappa, V domains shown)
VH: B8 VH
VL: B7 VL with Q30S, L96I
notes: Hybridoma antibody; also called 11H9.A4

IC50 (human NKG2A on cells [5]): 0.1 nM
EC50 (human NKG2A on cells [6]): 0.1 nM
B10: NKG2A.15 antibody (antibody, human IgG1, kappa)
heavy: EVQLVESGGGLVKPGGSLRLSCAASGFTFSSHSMNWVRQAPGKGLEWVSAISSSSSYIYYADSVKGRFTISRDNAKNSLYLQMNSLRAEDTAVYYCAREEWGLPFDYWGQGILVTVSSASTKGPSVFPLAPSSKSTSGGTAALGCLVKDYFPEPVTVSWNSGALTSGVHTFPAVLQSSGLYSLSSVVTVPSSSLGTQTYICNVNHKPSNTKVDKRVEPKSCDKTHTCPPCPAPEAEGAPSVFLFPPKPKDTLMISRTPEVTCVVVDVSHEDPEVKFNWYVDGVEVHNAKTKPREEQYNSTYRVVSVLTVLHQDWLNGKEYKCKVSNKALPAPIEKTISKAKGQPREPQVYTLPPSREEMTKNQVSLTCLVKGFYPSDIAVEWESNGQPENNYKTTPPVLDSDGSFFLYSKLTVDKSRWQQGNVFSCSVMHEALHNHYTQKSLSLSPGK
light: B4 light
notes: IgG1.3f; also called 13F3.A4 VK-N30P

EC50 [7]: 1.2 nM
IC50 (human NKG2A on cells [5]): 0.1 nM
EC50 (human NKG2A on cells [6]): 0.2 nM
B11: NKG2A.12 antibody (antibody, human IgG1, kappa, V domains shown)
VH: B5 VH
VL: B7 VL with Q30N
notes: IgG1.3f; also called 13F3.A4 VH-I107T

EC50 [7]: 0.6 nM
Half-life of Antibody/Analyte Complex [12]: 19 s
Kd [12]: 91 nM
koff [12]: 0.036 s⁻¹
kon [12]: 400000 M⁻¹ s⁻¹
Half-life of Antibody/Analyte Complex [13]: 23 s
Kd [13]: 1100 nM
koff [13]: 0.03 s⁻¹
kon [13]: 28000 M⁻¹ s⁻¹
IC50 (human NKG2A on cells [5]): 1.3 nM
EC50 (human NKG2A on cells [14]): 1 nM
B12: 2G6.C2 antibody (antibody, human IgG1, kappa, V domains shown)
VH: EVQLVESGGGLVQRGGSLRLSCAASGFTFSSNSMNWIRQAPGKGLEWVAHISSGSSFIYYADSVKGRFTISRDNAKNSLSLQMNSLRDEDTAVYYCARDDWGIDAFNIWGQGTMVTVSS
VL: EIVLTQSPATLSLSPGERATLSCRASQSVSSSLAWYQQKPGQAPRLLIYDASNRATGIPARFSGSGSGTDFTLTISSLEPEDFAVYYCQQRSNWIFTFGPGTKVDIKR
notes: Hybridoma antibody
